Results published in patent publication US20200121801A1, “DRUG DELIVERY CONJUGATES CONTAINING UNNATURAL AMINO ACIDS AND METHODS FOR USING” (priority 2012, published 2020).

What was measured:
[1] = biological target: T1, folate receptors (FR) on CHO-FRβ cells (Homo sapiens, UniProt P14207); assay: Relative affinity assay (3H-folic acid competition) on CHO-FRβ cells; format: binding; settings: 1 h at 37° C.
T1 construct: expressed in transfected cells; host or cells: CHO cells (CHO-FRβ)

[2] = biological target: T2, folate receptors (FRs) on KB cells (Homo sapiens, UniProt P15328); assay: Relative affinity assay (3H-folic acid competition) on KB cells; format: binding; settings: KB cells, 1 h at 37° C.
T2 construct: FR-positive KB cells are heavily seeded into 24-well cell culture plates; endogenous in cells; host or cells: KB cells
T2 sequence (P15328 25-234): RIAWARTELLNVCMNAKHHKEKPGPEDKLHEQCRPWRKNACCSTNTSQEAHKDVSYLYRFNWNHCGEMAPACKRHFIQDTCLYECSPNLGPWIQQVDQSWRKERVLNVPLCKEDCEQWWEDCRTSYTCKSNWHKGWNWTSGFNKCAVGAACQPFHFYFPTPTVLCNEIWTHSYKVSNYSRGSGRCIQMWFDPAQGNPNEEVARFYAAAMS
Description: METHOD. Relative Affinity Assay. The affinity for folate receptors (FRs) relative to folate is determined according to a previously described method (Westerhof, G. R., J. H. Schornagel, et al. (1995) Mol. Pharm. 48: 459-471) with slight modification. Briefly, FR-positive KB cells are heavily seeded into 24-well cell culture plates and allowed to adhere to the plastic for 18 h. Spent incubation media is replaced in designated wells with folate-free RPMI (FFRPMI) supplemented with 100 nM ^3H-folic acid in the absence and presence of increasing concentrations of test article or folic acid. Cells are incubated for 60 min at 37° C. and then rinsed 3 times with PBS, pH 7.4. Five hundred microliters of 1% SDS in PBS, pH 7.4, is added per well. Cell lysates are then collected and added to individual vials containing 5 mL of scintillation cocktail, and then counted for radioactivity. Negative control tubes contain only the ^3H-folic acid in FFRPMI (no competitor). Positive control tubes contain a final concentration of 1 mM folic acid, and CPMs measured in these samples (representing non-specific binding of label) are subtracted from all samples.

[3] = tested on: experimental autoimmune uveitis; assay: Experimental autoimmune uveitis (EAU) model
Description: Animal Experimental Autoimmune Uveitis Model. Experimental autoimmune uveitis (EAU) is induced in female Lewis rats maintained on a folate-deficient diet (Harlan Teklad, Indianapolis, Ind.). On Day 0, the animals are immunized subcutaneously with 25 μg of bovine S-Ag PDSAg peptide formulated with Freund's incomplete adjuvant containing 0.5 mg of grounded M. Tuberculosis H37Ra. Purified pertussis toxin (PT) is given at a dosage of 1 μg per animal on the same day via intraperitoneal injection. The severity of uveitis in each eye is assessed by a qualitative visual score system: 0=No disease, eye is translucent and reflects light (red reflex); 0.5 (trace)=Dilated blood vessels in the iris, 1=Engorged blood vessels in iris, abnormal pupil contraction; 2=Hazy anterior chamber, decreased red reflex; 3=Moderately opaque anterior chamber, but pupil still visible, dull red reflex; and 4=Opaque anterior chamber and obscured pupil, red reflex absent, proptosis. This assessment yields a maximum uveitis score of 8 per animal.
All treatments start on day 8 after EAU induction. The animals in the EAU control group are untreated. […] The uveitis score and animal body weight are recorded for each animal at predetermined frequencies. The clinical severity of EAU is monitored on a daily basis using an ophthalmoscope and graded on a scale of 0 to 4 per eye with a maximum possible score of 8 per animal. […]

RAW264.7 macrophages = assay: XTT cell viability assay on RAW264.7 macrophages; format: cell-based, murine
Description: METHOD. Inhibition of Cellular DNA Synthesis. The compounds described herein are evaluated using an in vitro cytotoxicity assay that predicts the ability of the drug to inhibit the growth of folate receptor-positive cells, such as KB cells, RAW264.7 macrophages, and the like. It is to be understood that the choice of cell type can made on the basis of the susceptibility of those selected cells to the drug that forms the conjugate. The test compounds are comprised of folate linked to a respective chemotherapeutic drug, as prepared according to the processes described herein. The test cells are exposed to varying concentrations of folate-drug conjugate, and also in the absence or presence of at least a 100-fold excess of folic acid to assess activity as being specific to folate receptor mediation.
EXAMPLE. […] The anti-proliferative activity of EC1669 is measured in a XTT cell viability assay (FIG. 2) on RAW264.7 cells after a 2-h exposure and a total of 72 h incubation.
RAW264.7 macrophages are susceptible to the drug forming the EC1669 conjugate, aminopterin. The cell viability is assessed by adding XTT (2,3-bis(2-methoxy-4-nitro-5-sulfo-phenyl)-2H-tetrazolium-5-carboxanilide) following the manufacturer's instructions. […] The observed anti-proliferative effect was 100% competable in the presence of 100-fold excess folic acid (FA), indicating a FR-specific mode of action for EC1669.

[4] = Plasma clearance after s.c. administration; format: in vivo, Lewis rats
Description: METHOD. Plasma clearance. In vivo studies include a minimum of 3 test animals, such as rats, per time point. Illustratively, female Lewis rats with jugular vein catheters (Harlan, regular rodent diet) are given a single subcutaneous injection of test compound, such as EC1669 at 500 nmol/kg. Whole blood samples (300 μL) are collected at the following time points: 1 min, 10 min, 30 min, 1 h, 2 h, 3 h, 4 h, 8 h, and 12 h after injection. The blood samples are placed into anti-coagulant tubes containing 1.7 mg/mL of K3-EDTA and 0.35 mg/mL of N-maleoyl-beta-alanine (0.35 mg/mL) in a 0.15% acetic acid solution. Plasma samples are obtained by centrifugation for 3 min at ˜2,000 g and stored at −80° C. The amounts of test compound in the plasma and any metabolites, such as EC1669 and its two active metabolites aminopterin (AMT) and AMT hydrazide (EC0470), respectively, are quantified by LC-MS/MS.

T1 sequence (P14207 17-230): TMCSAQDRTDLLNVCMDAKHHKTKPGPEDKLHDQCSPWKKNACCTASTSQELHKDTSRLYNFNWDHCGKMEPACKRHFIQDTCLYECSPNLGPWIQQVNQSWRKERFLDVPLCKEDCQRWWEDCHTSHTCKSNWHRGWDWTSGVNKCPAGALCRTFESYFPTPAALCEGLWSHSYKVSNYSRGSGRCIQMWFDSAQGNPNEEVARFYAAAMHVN

## N=c1[nH]c(N)nc2ncc(CNc3ccc(C(=O)N[C@@H](CCC(=O)NNC(=O)OCCSSC[C@@H](NC(=O)[C@H](CCC(=O)NC[C@H](O)[C@@H](O)[C@H](O)[C@H](O)CO)NC(=O)[C@@H](CCC(=O)O)NC(=O)[C@H](CCC(=O)NC[C@H](O)[C@@H](O)[C@H](O)[C@H](O)CO)NC(=O)[C@@H](CCC(=O)O)NC(=O)[C@H](CCC(=O)NC[C@H](O)[C@@H](O)[C@H](O)[C@H](O)CO)NC(=O)CC[C@H](NC(=O)c4ccc(NCc5cnc6nc(N)[nH]c(=O)c6n5)cc4)C(=O)O)C(=O)O)C(=O)O)cc3)nc12 [EC1669]
[1]
  relative affinity (normalized against folic acid, set to 1): 0.13
[2]
  relative affinity (normalized against folic acid, set to 1): 0.53
[3]; 250 nmol/kg s.c. q2d, five doses from day 8
  symptoms of EAU (uveitis score): effectively reduces the symptoms of EAU
[3]; rat, in vivo
  treatment-related weight loss / whole animal toxicity: does not cause whole animal toxicity
RAW264.7 macrophages; 2-h exposure, total of 72 h incubation, read-out: relative IC50, inhibition of cell proliferation
  IC50: ~1.2 nM
RAW264.7 macrophages; 100-fold excess folic acid
  anti-proliferative effect competable by folic acid: 100%
[4]; female, Lewis, rat, in vivo, sc, EC1669 500 nmol/kg s.c., blood, read-out: elimination half-life
  half-life: ~37 min
[4]; female, Lewis, rat, in vivo, sc, EC1669 500 nmol/kg s.c., plasma, read-out: Cmax
  Cmax: ~472 nM
[4]; female, Lewis, rat, in vivo, sc, EC1669 500 nmol/kg s.c., read-out: area-under-the-curve (AUC) (converted)
  AUC: 0.867 µM·h
[4]; plasma, 12 h collection period
  % Released: AMT: 9.5%
  % Released: EC0470: 6.3%
[4]; plasma, 12 h collection period, based on AUC
  % Released: Total (AMT plus EC0470): ~15.8%
[4]; rat, in vivo
  AMT/EC0470 Ratio: 1.51
